# Experimental data: article PMC2118261
# pKd: −log10 of the molar value.
# Columns and labels:
# [1] = target: human CD1d loaded with α-galactosylceramide, biotinylated (human) (UniProt P15813); experiment: SPR
# [2] = target: mouse CD1d loaded with α-galactosylceramide, biotinylated (for SPR) (mouse) (UniProt P11609); experiment: SPR
# Sequence of UniProt P11609 (P11609 22-336): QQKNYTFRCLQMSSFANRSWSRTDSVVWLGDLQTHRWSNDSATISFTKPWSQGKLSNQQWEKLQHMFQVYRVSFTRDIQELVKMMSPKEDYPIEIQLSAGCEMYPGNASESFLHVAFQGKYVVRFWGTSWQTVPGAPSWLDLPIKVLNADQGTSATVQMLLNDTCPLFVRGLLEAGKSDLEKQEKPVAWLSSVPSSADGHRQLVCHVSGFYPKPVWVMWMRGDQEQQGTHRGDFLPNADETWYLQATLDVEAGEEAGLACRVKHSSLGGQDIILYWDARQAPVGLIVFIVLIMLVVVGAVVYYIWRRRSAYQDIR
# Sequence of UniProt P15813 (P15813 20-335): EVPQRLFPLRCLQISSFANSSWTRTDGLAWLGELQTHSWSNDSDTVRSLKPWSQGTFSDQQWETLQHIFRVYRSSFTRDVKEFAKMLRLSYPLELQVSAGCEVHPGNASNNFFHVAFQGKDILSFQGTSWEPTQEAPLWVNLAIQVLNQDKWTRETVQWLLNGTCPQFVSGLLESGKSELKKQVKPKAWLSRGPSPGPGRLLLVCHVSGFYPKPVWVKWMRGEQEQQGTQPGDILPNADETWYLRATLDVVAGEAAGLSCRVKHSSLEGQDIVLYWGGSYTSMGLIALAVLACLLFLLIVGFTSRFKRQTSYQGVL
pKd [1],pKd [2],fold lower affinity than NKT15 [1],fold lower affinity than NKT15 [2],Substance
5.00,4.70,–,–,"NKT15 TCR (human semi-invariant NKT cell αβ T cell receptor, soluble extracellular domains)"
–,–,5 to 10 fold,5 to 10 fold,NKT15α-chain/NKT15 β-chain engrafted with the LC13 CDR3β-loop (TCR)
